Data as given in the RNAGym collection of RNA variant scans (doi:10.7554/elife.80360).

B1: Hairpin Ribozyme (parent)
chain: GUCCUCUUUCACGUGCGCGUGAAAGAGAGAAGUGAACCAGAGAAACACACGUUGUGGUAUAUUACCUGGUA

Variants of: B1
Experiment: self-cleavage, relative activity (ratio to wild type); higher = more cleavage; co-transcriptional

Variant | self-cleavage
A61G U62G | 0.128
U55C G56C | 0.114
U55C G56A | 0.0854
U55G G57A | 0.0886
U63G C66U | 0.109
U63G C66A | 0.119
A61C A71G | 0.286
A64C G68C | 0.273
G57C U60G | 0.178
G57C U60A | 0.14
A59C U67G | 0.24
G57U U62A | 0.0927
G56A C66A | 0.0948
A64U G68C | 0.213
U63A C65G | 0.173
U58C U70C | 0.945
U60G U63C | 0.171
U55G C65G | 0.256
U55G C65U | 0.0906
U62A G68U | 0.28
U63C A64C | 0.224
U60A A61U | 0.17
U60A A61C | 0.133
G56U U58C | 0.0906

Variant | self-cleavage
A59C C66U | 0.107
G56C U70G | 0.0624
U55G G69U | 0.25
G56C C65G | 0.0604
G56C C65U | 0.16
G56A G69A | 0.148
U62G U70A | 0.163
U60C U63G | 0.136
A59C U70A | 0.112
U58G C66U | 0.403
U58G C66A | 0.281
U58G U60G | 0.731
U58G U60A | 0.714
U60A C66U | 0.274
U60A C66A | 0.365
U58A A59G | 0.122
A61G G68C | 0.195
U63C G69U | 0.183
U63C G69C | 0.28
G57A U70C | 0.274
U55C A71G | 0.388
U60A A71G | 0.839
A59G C66U | 0.0625
A64G C66G | 0.226

Variant | self-cleavage
U55G G68U | 0.139
G57A U62G | 0.273
G56U A64G | 0.0832
U62G C65U | 0.0799
U60G A64G | 0.335
U60G A64C | 0.186
U60G A61U | 0.259
U55C A59G | 0.0716
U55C U62C | 0.315
U55C U62A | 0.106
G56C U62G | 0.129
A64U C65G | 0.188
G56A G57U | 0.176
U58C A61G | 0
A59G U63C | 0.134
U55G G56C | 0.107
U55G G56U | 0.211
G57C G68U | 0.172
A59C A64C | 0.111
A59C A64G | 0.1
G57U A61G | 0.296
U55C U60C | 0.4
A61C U70C | 0.169
A61U U63A | 0.123

Variant | self-cleavage
U62G G68C | 0.186
U60A | 0.849
U60G | 0.615
U60C | 1.16
U62A C66U | 0.143
U58A C66U | 0.335
G57U U58C | 0.278
G57U U58G | 0.0777
A61C U63A | 0.177
U62G U67C | 0.133
U62G U67G | 0.127
G56C A59G | 0.205
G56C A59C | 0.154
G57A A61U | 0.143
G57A A61C | 0.155
G57A A61G | 0.169
U63A A64G | 0.0955
U55G U62G | 0
G56U A59C | 0.135
G56U A59U | 0.171
U63G U70C | 0.161
U63G U70G | 0.182
G57A U63A | 0.131
G56U U67G | 0.12

Variant | self-cleavage
G56U U67C | 0.111
G56U U67A | 0.23
G56C A64C | 0.104
G56C A64G | 0.148
A64C A71G | 0.266
U60C U70G | 1.03
U60C U70C | 1.28
U55G U63C | 0.0583
A64C C65G | 0.161
U55G A71U | 0.209
U62A C65A | 0.165
U62A C65U | 0.204
U55C G69U | 0.159
U55C G69C | 0.183
U55C G69A | 0.166
A64C U70G | 0.127
U58C G69C | 0.259
U58C G69A | 0.421
A64C C66A | 0.0503
A64C C66G | 0.084
A64C C66U | 0.27
U58C A71G | 1.31
U58C A71U | 0.935
U58C U67G | 0.241

Variant | self-cleavage
G56U U63C | 0.169
G57C C66G | 0.113
U60G G69C | 0.317
U60G G69A | 0.0995
U63C U70G | 0.248
G56C G69U | 0.313
G56C G69C | 0.12
A59C U60G | 0.274
A59C U60A | 0.223
A59G A64U | 0.181
G56A A59C | 0.169
G57U A71C | 0.738
A59C A71C | 0.304
U58C U62A | 0.24
A61C G68A | 0.116
A61C G68U | 0.278
G56A A61C | 0.112
G56A A61G | 0.2
G57A U60A | 0.152
U62C U63A | 0.21
U62C U63C | 0.168
U60C A61C | 0.264
G56A G68C | 0.0908
G56A G68U | 0.146

Variant | self-cleavage
A64C | 0.174
A64U | 0.181
A64G | 0.544
A59U C65A | 0.19
G57A A64C | 0.118
G57A A64G | 0.131
U62A U67G | 0.173
U58A G68C | 0.194
U55C A61U | 0.281
U62C U70G | 0.126
G56C G68C | 0.236
U55C G57A | 0.11
U58A U63G | 0.194
U58A U63C | 0.307
G56A U63G | 0.0781
G56A U63C | 0.286
U63G G69C | 0.138
U60C C65U | 0.909
U60C C65G | 0.531
U58C | 0.994
U58A | 0.742
U58G | 0.788
A61G U70G | 0.156
